Laboratory results from IntAct's records for PubMed 15150219.

B1: Nitrogen regulatory protein P-II (Synechococcus elongatus (strain PCC 7942)), P0A3F4 (parent)
chain: MKKIEAIIRPFKLDEVKIALVNAGIVGMTVSEVRGFGRQKGQTERYRGSEYTVEFLQKLKLEIVVEDAQVDTVIDKIVAAARTGEIGDGKIFVSPVDQTIRIRTGEKNADAI
partner: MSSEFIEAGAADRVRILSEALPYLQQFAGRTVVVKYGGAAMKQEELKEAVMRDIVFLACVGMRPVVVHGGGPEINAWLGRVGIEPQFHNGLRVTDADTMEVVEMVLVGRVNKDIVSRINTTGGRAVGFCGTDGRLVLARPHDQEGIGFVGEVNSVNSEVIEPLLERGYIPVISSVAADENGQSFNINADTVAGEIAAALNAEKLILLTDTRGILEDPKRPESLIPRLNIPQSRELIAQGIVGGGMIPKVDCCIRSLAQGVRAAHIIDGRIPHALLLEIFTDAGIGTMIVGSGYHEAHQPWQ

Variants of: B1
Conditions: with argb_syne7 argB

Effect of a mutation on the interaction, decreasing interaction:
S49D
S49A
S49E
